Assay results taken from the RNAGym collection of RNA variant scans (doi:10.7554/elife.90254).

B1: OR4K15 (parent)
chain: GUUAACGGUCAUAGGCCAUGGAAACUAGGAGCACCAUUUCGCUGCCAGUGAAGAAAUGAACAAAGAAAAUCUGGGCCAGGCAGGCAUCAAAAGAAAUAGUCUUGCGCUCAACCAGAAAGUCUGUAAUCAUUUUAAGGGUA

Variants of: B1
Assay: self-cleavage, relative activity (ratio to wild type); higher = more cleavage; in vitro, sequencing; the parent is a self-cleaving ribozyme

Going from GUUAACGGUCAUAGGCCAUGGAAACUAGGAGCACCAUUUCGCUGCCAGUGAAGAAAUGAACAAUGAAAACCUGGGCCAGGCAGGCAUCAAAAGAAAUAGUCUUGCGCUCAACCAGAAAGUCUGUAAUCAUUUUAAGGGUA to GUUAACGGUCAUAGGCCAUGGAAACUAGGAGCACCAUUUCGCUGCCAGUGAAGAAGUGAACAAAGAAAAUCUGGGCCUGGCAGGCAUCAAAAGAAAUAGUCUUGCGCUCAACCAGAAAGUCUGUAAUCAUUUUAAGGGUA, the self-cleavage falls from 1.06 to 0.2.

First: GUUAACGGUCAUAGGCCAUGGAAGCUAGGAGCACCAUUUCGCUGCCAGUGAAGAAAUGAACAAAGAAAAUCUGGGCCAGGCAGGCAUCAAAAGAAAUAGUCUUGCGCUCAACCAGAAAGUCUGUAAUCAUUUUAAGGGAA
Second: GUUAACGGUCAUAGGCCAUGGAAACUAGGAGCACCAUUUCGCUGCCAGUGAAGAAAAGAACAAAGAAAACCUGGGCCAGGCAGGCAUCAAAAGAAAUAGUCUUGCGCUCAACCAGAAAGUCUGUAAUCAUUUUAAGGGUA
The self-cleavage of the first is higher: 1.53 for the first, 0.48 for the second.

First: GUCAACGGUCAUAGGCCAUGGAAACUAGGAGCACCAUUUCGCUGCCAGUGAAGAAAUGAACGAAGAAAAUCUGGGCCAGGCAGGCAUCAAAAGAAAUAGUCUUGCGCUCAACCAGAAAGUCUGUAAUCAUUUUAAGGGUA
Second: GUUAACGGUCAUAGGCCACGGAAACUAGGAGCACCAUUUCGCUGCCAGUGAAGAAAUGAACAAAGAAAAUCUGGGCCAGGCAGGCAUCAAAAGAAAUAGUCUUGCGCUCAACCUGAAAGUCUGUAAUCAUUUUAAGGGUA
The self-cleavage of the first is higher: 0.96 for the first, 0.11 for the second.

GUUAACGGUCAUAGGCCAUGGAAACUAGGAGCACCAUUUCGCUGCCAGUGUAGAAAUGAACAAAGAAAAUCUGUGCCAGGCAGGCAUCAAAAGAAAUAGUCUUGCGCUCAACCAGAAAGUCUGUAAUCAUUUUAAGGGUA and GUUAACGGUCAUAGGCCAUGGAAACUAGGAGCACCAUUUCGCUGCCAGUGAAGAAAUGAACAAAGAAAAUCUGGGCCAGGCAGGCAUCAAGAGAAAUAGUCUUGCGCUCAACCGGAAAGUCUGUAAUCAUUUUAAGGGUA are the same in self-cleavage: 0.25 for the first, 0.25 for the second.

Going from GUUAACGGUCAUAGGCCAUGGAAACUAGGAGCACCAUUUCGCUGCCAGUGAAGAAAUGAACAAAGAAAAUCUGGGCCAGGCAGGCAUCAAAAGAAAUAGUCUUGCGCUCAAUCAGGAAGUCUGUAAUCAUUUUAAGGGUA to GUUAACGGUCAUAGGCCAUGGAAGCUAGGAGCACCCUUUCGCUGCCAGUGAAGAAAUGAACAAAGAAAAUCUGGGCCAGGCAGGCAUCAAAAGAAAUAGUCUUGCGCUCAACCAGAAAGUCUGUAAUCAUUUUAAGGGUA, the self-cleavage rises from 0 to 1.51.

Going from GUUAACGGUCAUAGGCCGUGGAAACUAGGAGCACCAUUUCGCUGCCAGUGAAGAAAUGAACAAAGAAAAUCUGGGCCAGGCAGGCAUCAAAAGAAAUAGUCUUGCGCUCAACCCGAAAGUCUGUAAUCAUUUUAAGGGUA to GUUAACGGUCAUAGGACGUGGAAACUAGGAGCACCAUUUCGCUGCCAGUGAAGAAAUGAACAAAGAAAAUCUGGGCCAGGCAGGCAUCAAAAGAAAUAGUCUUGCGCUCAACCAGAAAGUCUGUAAUCAUUUUAAGGGUA, the self-cleavage rises from 0.05 to 1.18.

First: GUUAACGGUCAUAGGCCUUGGAAACUAGGAGCACCAUUUCGCUGCCAGUGAAGAAAUGAACAAAGAAAAACUGGGCCAGGCAGGCAUCAAAAGAAAUAGUCUUGCGCUCAACCAGAAAGUCUGUAAUCAUUUUAAGGGUA
Second: GUUAACGGUCAAAGGCCAUGGAAACUAGGAGCACCAUUUCGCUGCCAGUGAAGAAAUGAACAAAGAAAAUCUGGGCCAGGCAGGCAUCAAAAGAAAUAGUCUUGCGCUCCACCAGAAAGUCUGUAAUCAUUUUAAGGGUA
The self-cleavage of the first is higher: 1.35 for the first, 0.34 for the second.

Compared with GUUAACGGUCAUAGGCCAUGGAAACUAGGAGCACCAUUUCGCUGCCAGUGAAGCAAUGAACAAAGAAAAUCAGGGCCAGGCAGGCAUCAAAAGAAAUAGUCUUGCGCUCAACCAGAAAGUCUGUAAUCAUUUUAAGGGUA, GUUAACGGUCAUAGGCCAUGGAAACUAGGAGCACCAUUUCGCUGCCAGCGAAGAAAUGAACAAAGAAAAUCUGGGCCAGGCAGGCAUCAAAAGAAAUAGUCUUGCGCUCAACCAGAAAGUCUGUAAUCAUUUUAAGUGUA is higher in self-cleavage: 0.43 for the first, 2.29 for the second.

Compared with GUUAACGGUCAUAGGCCAUGGAAACUAGGAGCACCAUUUCGCUGCCUGUGAAGAAAUGAACAAAGAAAAUCAGGGCCAGGCAGGCAUCAAAAGAAAUAGUCUUGCGCUCAACCAGAAAGUCUGUAAUCAUUUUAAGGGUA, GUUAACGGUCAUAGGCCAUGGUAACUAGGAGCACCAUUUCGCUGCCAGUGAAGAAAUGAACAAAGAAAAUCUGGGCCAGGCAGGCAACAAAAGAAAUAGUCUUGCGCUCAACCAGAAAGUCUGUAAUCAUUUUAAGGGUA is higher in self-cleavage: 0.13 for the first, 1.53 for the second.

Compared with GUUAACGGUCAUAGGCCAUGGAAACUAGGAGCACCAUUUCGCUGCCGGUGAAGAAAUGAACAAGGAAAAUCUGGGCCAGGCAGGCAUCAAAAGAAAUAGUCUUGCGCUCAACCAGAAAGUCUGUAAUCAUUUUAAGGGUA, GUUAACGGUCAUAGGCCAUGGAAACUAGGAGCACCAUUCCGCUGCCAGUGAAGAAAUGAACAAAGAAAAUCUGGGCCAGGCAGGCAUCAAAAGAAAAAGUCUUGCGCUCAACCAGAAAGUCUGUAAUCAUUUUAAGGGUA is lower in self-cleavage: 1.17 for the first, 1.16 for the second.

GUUAACGGUCAUAGGCCAUGGAGACUAGGAGCACCAUUUCGCUGCCAGUGAAGAAAUGAACAAAGAAAAUCUGGGCCAGGCAGGCAUCAAAAGAAAUAGUCUUGCGCUCAGCCAGAAAGUCUGUAAUCAUUUUAAGGGUA showed a self-cleavage of 0.05.
